Measurements from publication PMC7988105.

How the values were obtained:
[1] = molecular target: NRXN1β (lacking SS4) Fc fusion used as bait in the pull-down; assay: pull-down; conditions: chain shown with the change;; parent: est. 100; read off a plot
[2] = molecular target: PTPδA3B– extracellular domain fused to Fc (mouse); assay: pull-down; soluble recombinant proteins mixed at 0.03 μM each in HBSS, 2 mM CaCl2, 1 mM MgCl2, 3 h, then Protein A-Sepharose 1 h, room temperature; NLGN3-His6 detected with anti-His
Chain of PTPδA3B– extracellular domain fused to Fc (mouse) (Q64487 other isoform, or with tags, fused parts or gaps mutant): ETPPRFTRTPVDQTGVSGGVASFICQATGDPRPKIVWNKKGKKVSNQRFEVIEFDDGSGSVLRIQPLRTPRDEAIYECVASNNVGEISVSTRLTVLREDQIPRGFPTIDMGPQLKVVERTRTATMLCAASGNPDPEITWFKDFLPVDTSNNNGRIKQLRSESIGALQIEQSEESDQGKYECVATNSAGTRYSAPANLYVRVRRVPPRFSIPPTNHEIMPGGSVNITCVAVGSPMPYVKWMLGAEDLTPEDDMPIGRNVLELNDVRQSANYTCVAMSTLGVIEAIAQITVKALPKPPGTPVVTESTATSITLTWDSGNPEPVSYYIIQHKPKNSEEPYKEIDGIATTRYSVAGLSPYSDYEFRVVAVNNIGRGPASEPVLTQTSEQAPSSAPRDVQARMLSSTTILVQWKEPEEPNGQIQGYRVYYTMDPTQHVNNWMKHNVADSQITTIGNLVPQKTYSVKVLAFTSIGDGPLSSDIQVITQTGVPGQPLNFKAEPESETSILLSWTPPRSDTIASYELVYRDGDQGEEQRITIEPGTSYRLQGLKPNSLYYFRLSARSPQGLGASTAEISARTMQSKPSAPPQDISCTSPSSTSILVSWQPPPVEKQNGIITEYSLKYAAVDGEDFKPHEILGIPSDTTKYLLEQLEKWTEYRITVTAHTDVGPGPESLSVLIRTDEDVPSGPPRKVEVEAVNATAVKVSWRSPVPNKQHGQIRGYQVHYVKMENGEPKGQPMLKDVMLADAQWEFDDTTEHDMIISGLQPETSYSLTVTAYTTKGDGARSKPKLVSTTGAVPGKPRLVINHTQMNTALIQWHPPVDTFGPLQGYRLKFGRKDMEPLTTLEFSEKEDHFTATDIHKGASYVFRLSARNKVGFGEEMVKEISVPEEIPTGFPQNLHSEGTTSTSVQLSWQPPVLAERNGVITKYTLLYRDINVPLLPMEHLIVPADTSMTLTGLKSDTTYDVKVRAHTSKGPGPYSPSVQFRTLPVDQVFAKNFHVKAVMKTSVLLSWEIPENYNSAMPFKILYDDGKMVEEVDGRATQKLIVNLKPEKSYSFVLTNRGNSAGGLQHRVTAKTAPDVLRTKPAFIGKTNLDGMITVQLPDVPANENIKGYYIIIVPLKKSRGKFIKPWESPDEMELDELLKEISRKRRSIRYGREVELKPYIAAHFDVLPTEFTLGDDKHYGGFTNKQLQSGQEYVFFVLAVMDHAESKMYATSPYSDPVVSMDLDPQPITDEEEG

Chain of NRXN1β (lacking SS4) Fc fusion used as bait in the pull-down (chain, as listed by the source): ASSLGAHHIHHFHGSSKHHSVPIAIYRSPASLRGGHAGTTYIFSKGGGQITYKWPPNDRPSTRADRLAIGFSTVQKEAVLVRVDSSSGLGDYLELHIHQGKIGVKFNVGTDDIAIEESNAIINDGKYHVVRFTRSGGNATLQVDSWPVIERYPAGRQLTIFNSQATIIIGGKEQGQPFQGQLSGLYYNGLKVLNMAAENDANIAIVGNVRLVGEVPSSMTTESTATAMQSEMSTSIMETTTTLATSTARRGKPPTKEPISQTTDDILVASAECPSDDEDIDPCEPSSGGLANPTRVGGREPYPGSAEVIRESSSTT

Row | Binder | percent of parent [1] [% WT] | pulldown efficiency (% of wild-type) (% of wild-type) [2]
1 | mouse NLGN3 ECD (residues 35–684) with C-terminal His6 tag, Q8BYM5 H279A; S280A; E281A (protein) QAPAPTVNTHFGKLRGARVPLPSEILGPVDQYLGVPYAAPPIGEKRFLPPEPPPSWSGIRNATHFPPVCPQNIHTAVPEVMLPVWFTANLDIVATYIQEPNEDCLYLNVYVPTEDGSGAKKQGEDLADNDGDEDEDIRDSGAKPVMVYIHGGSYMEGTGNMIDGSVLASYGNVIVITLNYRVGVLGFLSTGDQAAKGNYGLLDQIQALRWVSENIAFFGGDPRRITVFGSGIGASCVSLLTLSHAAAGLFQRAIIQSGSALSSWAVNYQPVKYTSLLADKVGCNVLDTVDMVDCLRQKSAKELVEQDIQPARYHVAFGPVIDGDVIPDDPEILMEQGEFLNYDIMLGVNQGEGLKFVEGVVDPEDGVSGTDFDYSVSNFVDNLYGYPEGKDTLRETIKFMYTDWADRDNPETRRKTLVALFTDHQWVEPSVVTADLHARYGSPTYFYAFYHHCQSLMKPAWSDAAHGDEVPYVFGVPMVGPTDLFPCNFSKNDVMLSAVVMTYWTNFAKTGDPNKPVPQDTKFIHTKANRFEEVAWSKYNPRDQLYLHIGLKPRVRDHYRATKVAFWKHLVPHLYNLHDMFHYTSTTTKVPPPDTTHSSHITRRPNGKTWSTKRPAISPAYSNENAPGSWNGDQDAGPLLVENPRDYSTE | 22 | 
2 | NLGN3 ECD R448C mutant (R/C; equivalent to human R451C) with His6 tag, Q8BYM5 35-684 (domain or fragment) QAPAPTVNTHFGKLRGARVPLPSEILGPVDQYLGVPYAAPPIGEKRFLPPEPPPSWSGIRNATHFPPVCPQNIHTAVPEVMLPVWFTANLDIVATYIQEPNEDCLYLNVYVPTEDGSGAKKQGEDLADNDGDEDEDIRDSGAKPVMVYIHGGSYMEGTGNMIDGSVLASYGNVIVITLNYRVGVLGFLSTGDQAAKGNYGLLDQIQALRWVSENIAFFGGDPRRITVFGSGIGASCVSLLTLSHHSEGLFQRAIIQSGSALSSWAVNYQPVKYTSLLADKVGCNVLDTVDMVDCLRQKSAKELVEQDIQPARYHVAFGPVIDGDVIPDDPEILMEQGEFLNYDIMLGVNQGEGLKFVEGVVDPEDGVSGTDFDYSVSNFVDNLYGYPEGKDTLRETIKFMYTDWADRDNPETRCKTLVALFTDHQWVEPSVVTADLHARYGSPTYFYAFYHHCQSLMKPAWSDAAHGDEVPYVFGVPMVGPTDLFPCNFSKNDVMLSAVVMTYWTNFAKTGDPNKPVPQDTKFIHTKANRFEEVAWSKYNPRDQLYLHIGLKPRVRDHYRATKVAFWKHLVPHLYNLHDMFHYTSTTTKVPPPDTTHSSHITRRPNGKTWSTKRPAISPAYSNENAPGSWNGDQDAGPLLVENPRDYSTE |  | 20
3 | mouse NLGN3 ECD (residues 35–684) with C-terminal His6 tag, Q8BYM5 D362A; E372A; N375A (protein) QAPAPTVNTHFGKLRGARVPLPSEILGPVDQYLGVPYAAPPIGEKRFLPPEPPPSWSGIRNATHFPPVCPQNIHTAVPEVMLPVWFTANLDIVATYIQEPNEDCLYLNVYVPTEDGSGAKKQGEDLADNDGDEDEDIRDSGAKPVMVYIHGGSYMEGTGNMIDGSVLASYGNVIVITLNYRVGVLGFLSTGDQAAKGNYGLLDQIQALRWVSENIAFFGGDPRRITVFGSGIGASCVSLLTLSHHSEGLFQRAIIQSGSALSSWAVNYQPVKYTSLLADKVGCNVLDTVDMVDCLRQKSAKELVEQDIQPARYHVAFGPVIDGDVIPADPEILMEQGAFLAYDIMLGVNQGEGLKFVEGVVDPEDGVSGTDFDYSVSNFVDNLYGYPEGKDTLRETIKFMYTDWADRDNPETRRKTLVALFTDHQWVEPSVVTADLHARYGSPTYFYAFYHHCQSLMKPAWSDAAHGDEVPYVFGVPMVGPTDLFPCNFSKNDVMLSAVVMTYWTNFAKTGDPNKPVPQDTKFIHTKANRFEEVAWSKYNPRDQLYLHIGLKPRVRDHYRATKVAFWKHLVPHLYNLHDMFHYTSTTTKVPPPDTTHSSHITRRPNGKTWSTKRPAISPAYSNENAPGSWNGDQDAGPLLVENPRDYSTE | 18 | 

Continued, values first:

Row | percent of parent [1] [% WT] | pulldown efficiency (% of wild-type) (% of wild-type) [2] | Binder
4 | 104 |  | mouse NLGN3 ECD (residues 35–684) with C-terminal His6 tag, Q8BYM5 M614A; F615A (protein) QAPAPTVNTHFGKLRGARVPLPSEILGPVDQYLGVPYAAPPIGEKRFLPPEPPPSWSGIRNATHFPPVCPQNIHTAVPEVMLPVWFTANLDIVATYIQEPNEDCLYLNVYVPTEDGSGAKKQGEDLADNDGDEDEDIRDSGAKPVMVYIHGGSYMEGTGNMIDGSVLASYGNVIVITLNYRVGVLGFLSTGDQAAKGNYGLLDQIQALRWVSENIAFFGGDPRRITVFGSGIGASCVSLLTLSHHSEGLFQRAIIQSGSALSSWAVNYQPVKYTSLLADKVGCNVLDTVDMVDCLRQKSAKELVEQDIQPARYHVAFGPVIDGDVIPDDPEILMEQGEFLNYDIMLGVNQGEGLKFVEGVVDPEDGVSGTDFDYSVSNFVDNLYGYPEGKDTLRETIKFMYTDWADRDNPETRRKTLVALFTDHQWVEPSVVTADLHARYGSPTYFYAFYHHCQSLMKPAWSDAAHGDEVPYVFGVPMVGPTDLFPCNFSKNDVMLSAVVMTYWTNFAKTGDPNKPVPQDTKFIHTKANRFEEVAWSKYNPRDQLYLHIGLKPRVRDHYRATKVAFWKHLVPHLYNLHDAAHYTSTTTKVPPPDTTHSSHITRRPNGKTWSTKRPAISPAYSNENAPGSWNGDQDAGPLLVENPRDYSTE
5 | 115 |  | mouse NLGN3 ECD (residues 35–684) with C-terminal His6 tag, Q8BYM5 M614I; F615S (protein) QAPAPTVNTHFGKLRGARVPLPSEILGPVDQYLGVPYAAPPIGEKRFLPPEPPPSWSGIRNATHFPPVCPQNIHTAVPEVMLPVWFTANLDIVATYIQEPNEDCLYLNVYVPTEDGSGAKKQGEDLADNDGDEDEDIRDSGAKPVMVYIHGGSYMEGTGNMIDGSVLASYGNVIVITLNYRVGVLGFLSTGDQAAKGNYGLLDQIQALRWVSENIAFFGGDPRRITVFGSGIGASCVSLLTLSHHSEGLFQRAIIQSGSALSSWAVNYQPVKYTSLLADKVGCNVLDTVDMVDCLRQKSAKELVEQDIQPARYHVAFGPVIDGDVIPDDPEILMEQGEFLNYDIMLGVNQGEGLKFVEGVVDPEDGVSGTDFDYSVSNFVDNLYGYPEGKDTLRETIKFMYTDWADRDNPETRRKTLVALFTDHQWVEPSVVTADLHARYGSPTYFYAFYHHCQSLMKPAWSDAAHGDEVPYVFGVPMVGPTDLFPCNFSKNDVMLSAVVMTYWTNFAKTGDPNKPVPQDTKFIHTKANRFEEVAWSKYNPRDQLYLHIGLKPRVRDHYRATKVAFWKHLVPHLYNLHDISHYTSTTTKVPPPDTTHSSHITRRPNGKTWSTKRPAISPAYSNENAPGSWNGDQDAGPLLVENPRDYSTE
